Experimental findings from article PMC12254369, “Small molecule disruption of RARα/NCoR1 interaction inhibits chaperone-mediated autophagy in cancer” (EMBO Molecular Medicine, 2025) are described below.

Ends that are not written are not given here. * marks the point of attachment. FITC = O=C1OC2(c3ccc(O)cc3Oc3cc(O)ccc32)c2ccc(NC(=S)*)cc21; Ahx = NCCCCCC(=O)O

The target in experiment [1] is T1, His-tagged RARα LBD with FITC-SRC (Homo sapiens, UniProt P10276).
T1 construct: gene RARA; LBD residues 176-462 with His tag
T1 sequence (P10276 176-462): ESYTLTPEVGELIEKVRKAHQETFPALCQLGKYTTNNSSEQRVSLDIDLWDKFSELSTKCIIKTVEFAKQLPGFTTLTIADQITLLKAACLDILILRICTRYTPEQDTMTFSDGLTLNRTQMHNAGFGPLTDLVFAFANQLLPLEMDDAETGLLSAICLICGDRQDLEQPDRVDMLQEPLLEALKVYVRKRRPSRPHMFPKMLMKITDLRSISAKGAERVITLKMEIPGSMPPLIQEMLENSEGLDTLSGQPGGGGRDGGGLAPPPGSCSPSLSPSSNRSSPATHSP
Briefly: TR-FRET coactivator peptide recruitment. The experiment is classed as binding. As to conditions: 3 nM His-RARα LBD, 50 nM FITC-SRC, 5 mM DTT, pH 7.4, 1 h; agonist. A general note: Time-resolved FRET reads energy transfer from a long-lived donor to a nearby acceptor.

Experiment [2] deals with T2, Recombinant RARα LBD (ligand binding domain of human retinoic acid receptor alpha, residues 176-462, … (human, UniProt P10276 176-462)).
T2 construct: The His tag is detected by the anti-6HIS Tb cryptate antibody in the TR-FRET assay; also called His-tagged RARα LBD; source: E. coli BL21(DE3), purified (Ni-NTA, Superdex 200 gel filtration); not shown: His tag, N-terminal, kept
T2 sequence (looked up): T1 sequence (P10276 176-462)
Briefly: AlphaScreen or HTRF; TR-FRET: 3 nM His-tagged RARα LBD, 0.5 nM anti-6HIS Tb cryptate (donor), 50 nM FITC-SRC (acceptor); 1x PBS, 0.02% Pluronic F-127, 5 mM DTT, pH 7.4; 1 h; increasing concentrations of CIM7, ATRA or AM580. The settings on record: both partners purified. (Alpha assays give light when donor and acceptor beads are brought close together.)

For experiment [3], the target named is T2, Recombinant RARα LBD (ligand binding …). Briefly: fluorescence polarisation; RARα LBD serially diluted from 50 µM, 5 nM FITC-NCoR1 peptide; 20 mM HEPES, 150 mM NaCl, 5 mM DTT, pH 7.5; read at 1 h; with DMSO, 25 µM CIM7, 10 µM ATRA or AM580. As to conditions: both partners purified. On the technique in general: Polarisation of emitted light reports the rotation of a fluorescent probe.

Take `CC1=C(/C=C/C(C)=C/C=C/C(C)=C/C(=O)O)C(C)(C)CCC1` [ATRA, All-trans retinoic acid]: the “TR-FRET coactivator peptide recruitment” value in experiment [1] was “rather enhance binding of the coactivator, SRC”.

B1: FITC-SRC peptide (FITC-Ahx-RHKILHRLLQEGS) (peptide)
peptide: {FITC-Ahx}-RHKILHRLLQEGS
notes: source: synthetic peptide (GenScript, purity >95%)
With B1, the binding result in experiment [2] is “binds”.

B2: FITC-NCoR1 peptide (FITC-Ahx-RLITLADHICQIITQDFAR) (peptide)
peptide: {FITC-Ahx}-RLITLADHICQIITQDFAR
notes: peptide of nuclear receptor corepressor 1 (NCoR1); also called NCoR1 fluorescent peptide; source: synthetic peptide (GenScript, purity >95%)
In the case of B2, the binding result in experiment [3] is recorded as “binds”.
